Measured values taken from PMC4827060.

Columns and labels:
Assay in all cases: SPR; IgG amine-coupled to CM5 chip (Biacore 3000); GST-ABD or GST at 54, 108, 216 and 432 nM, 10 μl/min for 7 min; 25 °C; PBS running buffer; 1:1 Langmuir model
Mouse IgG (mouse) = target: Mouse IgG (mouse)
Rabbit IgG (rabbit) = target: Rabbit IgG (rabbit)
Rat IgG (rat) = target: Rat IgG (rat)

## GST-ABD (recombinant secondary antibody mimic; glutathione-S-transferase fused through a linker to the antibody-binding domain of protein A) (domain or fragment)
Mouse IgG (mouse)
  Ka: 5.9e+07 M⁻¹
  Kd: 16.8 nM
  koff: 0.00107 s⁻¹
  kon: 63800 M⁻¹ s⁻¹
Rabbit IgG (rabbit)
  Ka: 7.6e+08 M⁻¹
  Kd: 1.31 nM
  koff: 9e-05 s⁻¹
  kon: 66600 M⁻¹ s⁻¹
Rat IgG (rat)
  Ka: 2.3e+08 M⁻¹
  Kd: 4.34 nM
  koff: 0.00022 s⁻¹
  kon: 51800 M⁻¹ s⁻¹
